The values that follow are results of earlier work, collected in article PMC5578180.

The test system of this data set is His193. In words: kinetics. The conditions noted are these: folded, green (pre-photoconversion) state of LEA under illumination.

Usually pKa stands for the pH at which an ionisable group is half protonated. As for “Least Evolved Ancestor (LEA), ancestral reconstructed green-to-red photoconvertible GFP-like fluorescent protein (synthetic construct (ancestral gene reconstruction of Faviina coral GFP-like proteins; lineage of the great star coral, printed as Monastrea cavernosa); A60V;Q62H;T69A;D74H;T104R;S105N;Y116N;M154T;V157I;R194C;R216H;del217;L219G)”, the pKa is recorded as 7.5.
